What all share (experiment): BLI
In general terms: BLI is a label-free optical method that tracks binding on a fibre tip over time.

Experiment [1] has as its target SARSr-CoV Rs4874-GCN S protein (Bat SARS-like coronavirus isolate Rs4874, strain).
Experiment [2] concerns the target SARSr-CoV Rs4231-T4 S protein (bat SARS-related CoV Rs4231).
The next experiment has as its target SARS-CoV-1 RBD (SARS-CoV-1).

Here are results for two molecules from paper PMC11145656 (Structure (London, England : 1993), 2023).

B1: CR3022 IgG1 (antibody, V domains shown)
VH: EVQLVQSGTEVKKPGESLKISCKGSGYGFITYWIGWVRQMPGKGLEWMGIIYPGDSETRYSPSFQGQVTISADKSINTAYLQWSSLKASDTAIYYCAGGSGISTPMDVWGQGTTVTVSS
VL: not shown
With B1, the binding result in experiment [1] and in experiment [2] was “binds” throughout.

B2: Ab246 IgG1 (antibody, V domains shown)
VH: QVQLQESGPGLVKPSETLSLTCSVSGDSIGTYYWSWIRQSPEKGLEWIGYIHHSGKTNYNPSLKSRVTMSVDTSKNQFSLKLTSVTAADTAVYYCARSPIGYCSSTKCYIDKPFDSWGQGTLVTVSS
VL: QAVLTQPSSLSASPGASASLTCTLRGGINVVNQRLYWYQQKPGSPPRFLLKYKSDSDNFLGSGVPSRFSGSKDASANAGILLISEVQSEDEADYYCMMWHSSAYVFGGGTKLTVL
As to B2, the binding result (in experiment [1]; in the experiment with SARS-CoV-1 RBD) was “binds” each time.
